For assay [1], the target named is FLJ32028 with an HA epitope tag fused to the predicted C-terminal end of the protein (human) (UniProt Q6P9G4). Briefly: flow cytometry on intact transfected 293-EBNA cells, streptavidin-PE detection.
In assay [2] the target is FLJ32028 with an HA epitope tag inserted at the predicted N-terminal end of the protein (human) (UniProt Q6P9G4). The description is as above.

Take “biotinylated Rat Anti-HA antibody (Roche)”: the % of transfected GFP+ cells negative for HA in assay [1] was 85%. Also, the % of transfected GFP+ cells positive for HA in assay [2] is > 99%.

Values taken from US20080057519A1.
